This is an account of results in the array DNA melting data of Ke et al..

The term Tm denotes the temperature at the midpoint of the melting transition.

A short description of the series: melting temperature; melt of duplexes. Particulars: sodium 0.0675 M; strand 1 µM.
For the substance “CGACGTGCATAATGTGCTG+CAGCACATCATGCACGTCG ((((((((((.((((((((+)))))))).))))))))))”, the Tm amounted to 54 °C.

Consider “CGACGTGCGTGATGTGCTG+CAGCACATCGAGCACGTCG ((((((((..(((((((((+)))))))))..))))))))”, for which the midpoint of thermal melting (Tm) is 58.6 °C.

In the case of “CGACGTGCAGAATGTGCTG+CAGCACATTTCGCACGTCG ((((((((..(((((((((+)))))))))..))))))))”, the Tm was found to be 53.5 °C.

For the substance “CGACGTGCTCAATGTGCTG+CAGCACATTGAGCACGTCG (((((((((((((((((((+)))))))))))))))))))”, the melting temperature (Tm) amounted to 64.2 °C.

Consider “CGACGTGCATTATGTGCTG+CAGCACATCGTGCACGTCG (((((((((..((((((((+))))))))..)))))))))”, for which the melting temperature (Tm) worked out at 47.3 °C.

On to “CGACGTGCCACATGTGCTG+CAGCACATCTTGCACGTCG ((((((((.(.((((((((+)))))))).).))))))))”, for which the Tm was 47.5 °C.

In the case of “CGACGTGCGACATGTGCTG+CAGCACATAGGGCACGTCG ((((((((...((((((((+))))))))...))))))))”, the melting temperature (Tm) turned out to be 50 °C.

As for “CGACGTGCAGCATGTGCTG+CAGCACATGTTGCACGTCG (((((((((.(((((((((+))))))))).)))))))))”, the Tm was determined as 58.7 °C.

On to “CGACGTGCGAGATGTGCTG+CAGCACATGAAGCACGTCG ((((((((...((((((((+))))))))...))))))))”, for which the Tm was determined as 55.4 °C.

With “CGACGTGCGTGATGTGCTG+CAGCACATGTCGCACGTCG (((((((((..((((((((+))))))))..)))))))))”, the Tm is 55.2 °C.

Turning to “CGACGTGCCTTATGTGCTG+CAGCACATAAAGCACGTCG ((((((((.((((((((((+)))))))))).))))))))”, the Tm turned out to be 53.4 °C.

For the substance “CGACGTGCCCGATGTGCTG+CAGCACATTCGGCACGTCG (((((((((..((((((((+))))))))..)))))))))”, the melting temperature (Tm) worked out at 54.9 °C.

Regarding “CGACGTGCCAGATGTGCTG+CAGCACATTCGGCACGTCG (((((((((..((((((((+))))))))..)))))))))”, the midpoint of thermal melting (Tm) turned out to be 56.2 °C.

For “CGACGTGCTAAATGTGCTG+CAGCACATGGGGCACGTCG ((((((((...((((((((+))))))))...))))))))”, the Tm was 52.5 °C.

For “CGACGTGCGCGATGTGCTG+CAGCACATCCGGCACGTCG ((((((((..(((((((((+)))))))))..))))))))”, the Tm stood at 55 °C.

As to “CGACGTGCAGCATGTGCTG+CAGCACATGTGGCACGTCG ((((((((..(((((((((+)))))))))..))))))))”, the Tm amounted to 55.5 °C.

As to “CGACGTGCACGATGTGCTG+CAGCACATCCGGCACGTCG ((((((((..(((((((((+)))))))))..))))))))”, the Tm was found to be 52.4 °C.

Consider “CGACGTGCTAAATGTGCTG+CAGCACATGGAGCACGTCG (((((((((..((((((((+))))))))..)))))))))”, for which the Tm was found to be 54.5 °C.

As for “CGACGTGCCCAATGTGCTG+CAGCACATCGGGCACGTCG ((((((((((.((((((((+)))))))).))))))))))”, the midpoint of thermal melting (Tm) stood at 58.9 °C.

In the case of “CGACGTGCCCAATGTGCTG+CAGCACATATCGCACGTCG ((((((((...((((((((+))))))))...))))))))”, the midpoint of thermal melting (Tm) worked out at 47.1 °C.

Regarding “CGACGTGCCGAATGTGCTG+CAGCACATTTCGCACGTCG ((((((((..(((((((((+)))))))))..))))))))”, the Tm was determined as 52.4 °C.

As to “CGACGTGCATAATGTGCTG+CAGCACATGAGGCACGTCG ((((((((.(.((((((((+)))))))).).))))))))”, the Tm worked out at 53.2 °C.

“CGACGTGCTATATGTGCTG+CAGCACATAGTGCACGTCG ((((((((..(((((((((+)))))))))..))))))))”: the Tm came to 49 °C.

With “CGACGTGCAACATGTGCTG+CAGCACATGCAGCACGTCG ((((((((..(((((((((+)))))))))..))))))))”, the midpoint of thermal melting (Tm) turned out to be 53.9 °C.

Regarding “CGACGTGCGCCATGTGCTG+CAGCACATGAAGCACGTCG ((((((((..(((((((((+)))))))))..))))))))”, the Tm worked out at 57.1 °C.

As to “CGACGTGCACTATGTGCTG+CAGCACATTAGGCACGTCG ((((((((...((((((((+))))))))...))))))))”, the midpoint of thermal melting (Tm) was 46.4 °C.

On to “CGACGTGCTAAATGTGCTG+CAGCACATTCCGCACGTCG ((((((((..(((((((((+)))))))))..))))))))”, for which the melting temperature (Tm) was found to be 50.1 °C.

“CGACGTGCATTATGTGCTG+CAGCACATCGCGCACGTCG ((((((((...((((((((+))))))))...))))))))”: the Tm amounted to 45.8 °C.

As for “CGACGTGCGTTATGTGCTG+CAGCACATATCGCACGTCG (((((((((.(((((((((+))))))))).)))))))))”, the Tm came out at 56.5 °C.

For the substance “CGACGTGCAATATGTGCTG+CAGCACATCCGGCACGTCG ((((((((...((((((((+))))))))...))))))))”, the melting temperature (Tm) came to 48.5 °C.

Consider “CGACGTGCCTGATGTGCTG+CAGCACATTCCGCACGTCG ((((((((...((((((((+))))))))...))))))))”, for which the Tm was found to be 48.5 °C.

“CGACGTGCGCGATGTGCTG+CAGCACATATGGCACGTCG ((((((((...((((((((+))))))))...))))))))”: the Tm is 50.1 °C.

With “CGACGTGCTTGATGTGCTG+CAGCACATCCGGCACGTCG ((((((((..(((((((((+)))))))))..))))))))”, the midpoint of thermal melting (Tm) amounted to 54.6 °C.

For “CGACGTGCTGTATGTGCTG+CAGCACATGAAGCACGTCG (((((((((..((((((((+))))))))..)))))))))”, the midpoint of thermal melting (Tm) was 54.9 °C.

In the case of “CGACGTGCTATATGTGCTG+CAGCACATTGTGCACGTCG ((((((((...((((((((+))))))))...))))))))”, the Tm was 47.2 °C.

For the substance “CGACGTGCGGCATGTGCTG+CAGCACATGGGGCACGTCG ((((((((..(((((((((+)))))))))..))))))))”, the melting temperature (Tm) is 57.6 °C.

On to “CGACGTGCTACATGTGCTG+CAGCACATGTCGCACGTCG ((((((((.((((((((((+)))))))))).))))))))”, for which the Tm came out at 57.2 °C.

With “CGACGTGCTTTATGTGCTG+CAGCACATGAAGCACGTCG ((((((((((.((((((((+)))))))).))))))))))”, the midpoint of thermal melting (Tm) came to 57.3 °C.

With “CGACGTGCATGATGTGCTG+CAGCACATTATGCACGTCG ((((((((((.((((((((+)))))))).))))))))))”, the Tm stood at 57.3 °C.

As to “CGACGTGCGCGATGTGCTG+CAGCACATTGGGCACGTCG ((((((((.(.((((((((+)))))))).).))))))))”, the midpoint of thermal melting (Tm) turned out to be 57.1 °C.

Regarding “CGACGTGCCGTATGTGCTG+CAGCACATTGGGCACGTCG (((((((((..((((((((+))))))))..)))))))))”, the melting temperature (Tm) was determined as 54.7 °C.

As for “CGACGTGCTGGATGTGCTG+CAGCACATGTGGCACGTCG ((((((((...((((((((+))))))))...))))))))”, the Tm was found to be 52.6 °C.

For the substance “CGACGTGCGTGATGTGCTG+CAGCACATGTTGCACGTCG ((((((((...((((((((+))))))))...))))))))”, the Tm came to 50 °C.

For “CGACGTGCGTAATGTGCTG+CAGCACATGTTGCACGTCG ((((((((...((((((((+))))))))...))))))))”, the Tm came out at 51.7 °C.

“CGACGTGCTATATGTGCTG+CAGCACATAAAGCACGTCG (((((((((.(((((((((+))))))))).)))))))))”: the midpoint of thermal melting (Tm) worked out at 55.6 °C.

For “CGACGTGCAAGATGTGCTG+CAGCACATGCAGCACGTCG ((((((((...((((((((+))))))))...))))))))”, the midpoint of thermal melting (Tm) was 52.3 °C.

For “CGACGTGCAGTATGTGCTG+CAGCACATAGTGCACGTCG (((((((((.(((((((((+))))))))).)))))))))”, the melting temperature (Tm) amounted to 55.1 °C.
